In doi:10.1101/2025.11.27.691040 (bioRxiv, 2025):

Target: T1, AtCKA1 (residues 76-409) with C-terminal 6xHis tag (Arabidopsis thaliana, UniProt Q08467 76-409)
T1 sequence (looked up): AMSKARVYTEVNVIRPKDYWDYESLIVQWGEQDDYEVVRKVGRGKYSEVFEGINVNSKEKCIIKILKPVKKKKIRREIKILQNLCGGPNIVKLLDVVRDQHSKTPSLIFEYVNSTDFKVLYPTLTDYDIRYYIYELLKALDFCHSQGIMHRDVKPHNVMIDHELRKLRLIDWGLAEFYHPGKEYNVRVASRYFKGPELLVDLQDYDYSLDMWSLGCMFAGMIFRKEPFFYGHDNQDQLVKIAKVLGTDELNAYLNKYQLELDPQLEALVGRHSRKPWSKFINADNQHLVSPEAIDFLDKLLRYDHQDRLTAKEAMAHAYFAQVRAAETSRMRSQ
Test: SEC-MALS

B1: AtCKB1 (residues 95-287), untagged (domain or fragment, Arabidopsis thaliana, UniProt P40228 95-287, looked up)
chain: DGEDTSWISWFCNLRGNEFFCEVDDDYIQDDFNLCGLSSLVPYYEYALDLILDVESSQGEMFTEEQNELIESAAEMLYGLIHARYILTSKGLAAMLDKYKNYDFGRCPRVYCCGQPCLPVGQSDLPRSSTVKIYCPKCEDIYYPRSKYQGNIDGAYFGTTFPHLFLMTYGHLKPAKATQNYVQRVFGFKLHKP
stoichiometry N: 1 β per α (2:2, α2β2)
